Test results taken from paper PMC6156121 (Science Advances, 2018).

Biological target: purified mTOR protein (Origene) (human, UniProt P42345 1-2549)
Experiment: co-IP

binding result: binds
B1: purified ETV7 protein (Origene) (natural protein)
chain: MQEGELAISPISPVAAMPPLGTHVQARCEAQINLLGEGGICKLPGRLRIQPALWSREDVLHWLRWAEQEYSLPCTAEHGFEMNGRALCILTKDDFRHRAPSSGDVLYELLQYIKTQRRALVCGPFFGGIFRLKTPTQHSPVPPEEVTGPSQMDTRRGHLLQPPDPGLTSNFGHLDDPGLARWTPGKEESLNLCHCAELGCRTQGVCSFPAMPQAPIDGRIADCRLLWDYVYQLLLDTRYEPYIKWEDKDAKIFRVVDPNGLARLWGNHKNRVNMTYEKMSRALRHYYKLNIIKKEPGQKLLFRFLKTPGKMVQDKHSHLEPLESQEQDRIEFKDKRPEISP
